According to article PMC3086336:
Changes are numbered by the printed parent chain. Names and notes keep the numbering of the source.

B1: Spt6(1247–1451) (domain or fragment)
chain: AKRTHRVINHPYYFPFNGRQAEDYLRSKERGEFVIRQSSRGDDHLVITWKLDKDLFQHIDIQELEKENPLALGKVLIVDNQKYNDLDQIIVEYLQNKVRLLNEMTSSEKFKSGTKKDVVKFIEDYSRVNPNKSVYYFSLNHDNPGWFYLMFKINANSKLYTWNVKLTNTGYFLVNYNYPSVIQLCNGFKTLLKSNSSKNRMNNYR
B2: R1282A/S1284A Spt6(1247–1451) (domain or fragment)
chain: B1 chain with R36A, S38A

How the values were obtained:
Assay in all cases: fluorescence polarisation
[1] = molecular target: pSer(2,5) RNAPII CTD di-heptad repeat peptide
[2] = molecular target: pSer2 RNAPII CTD di-heptad repeat peptide
[3] = molecular target: unphosphorylated form of the RNAPII-CTD (peptide)
[4] = molecular target: pSer5 RNAPII CTD di-heptad repeat peptide
[5] = molecular target: pTyr1 RNAPII CTD di-heptad repeat peptide

Row | Binder | Kd [1] | Kd [2] | Kd [3] | Kd [4] | fold decrease of binding against WT Spt6(1247–1451) [5] | fold decrease of binding against WT Spt6(1247–1451) [2] | fold decrease of binding against WT Spt6(1247–1451) [4]
1 | B1 | 23 µM | 197 µM | > 1000 µM | 245 µM | – | – | –
2 | B2 | – | – | – | – | 2.4 fold | 1.2 fold | 1.4 fold
